From the DeepSol protein solubility set come the findings set out here.

A short description of this data set: soluble on expression in E. coli; label from the status in PepcDB or PDB records.
Consider “MGSDKIHHHHHHMDSEIIKALKRFGFTQQESIMYVTLCRHGALTGYEAAKLAGISRSNAYAALSSLVEKGGAVVASDDTSKYVPTPRKELLVTIRRHCDETLEFLEQHLPEEQPVEMPYLTVTGYQNTMDKVRNMLRLAQLRVYISMHSGNAAQLKEDMAACAARGLKVVILSDADPQISGAIFMHNAAGTGHIKLIADTREVITGVVDQAARTGQCLYSANEHLVYLMREALLNEIELIKIRSGMSGAEPEESPTRGK”, for which the “soluble on expression in E. coli” value was “not soluble”.
On to “MYKRAEYHVITDRLKDRRRFIQVVMGARQIGKSTVVKQVLKDLDAPYQFFSADNVPTVNGAWISDCWAAVRSLKEAKEWESIILVIDEIQKIANWSEVVKKEWDDDTFHDRNIKVLLLGSSRVLLEKGLSESLAGRFEEIRMSHWSYQEMKDCFGFSLNQYLFYGGYPGAASLTDDDDRFSQYIQAAIIEATINKDILMGTPIGKPALLRRTFELGAAYSGELLSLNKMLGSLQDAGNTVTLAGYINLLDESGLLCGLQKFGYDMARRKASIPKLQVYNNALKMVYSPFTFEQAMLDRKSWGRIFESGIGAYLVSQAFVHRFEVFYWRERDDEVDFVLRKKGSVVAIEVKSNAEKRTDGLDKFSHSFKPQSAFILGDGGVRAEDFLSMDIRKLF”, for which the “soluble on expression in E. coli” value was “not soluble”.
For the sequence “GEAQERQTDDGIAAFCRHLGELCDLLNAPYDDVNALAHLARAGELQGTNVNLLLHNAFYHWLGERVQLSVAESRDVAPETIAAHAREAALAQIQSGEYVSQFVTAVAAHATQNVDGVQGPVAPTKQSLFDLPGHFELLGPDEVDGLLKDLASSDCPVGALEKLVADPHLLEDLCFGPTWPQLCDSLGRLVCLLPPSGGTQAAVTGAGHHQHGHTRAAAAVGGGAGRAAASVPEMPKQQQLLLQALNEVVSAVAASSPPHAAELLDGLAPYLTALALRLSLPLPGAGTGHATPVAPDQLQTRVQAGMAGPGAGAGDGGPGGVAVVGTGAVGLLVAVTARDA”, the “soluble on expression in E. coli” value is on record as “not soluble”.
Under “MKNIATGGVLERIRRLAPPHVTAPFRTVAEWREWQLAEGQKRCEEINRQNRQLRVEKILNRSGIQPLHRKCSFANYQVQNDGQRYALSQAKSIADELVTGCTNFAFSGKPGTGKNHLAAAIGNRLLKDGQTVIVVTVADVMSALHASYDDGQSGEKFLRELCEVDLLVLDEIGIQRETKNEQVVLHQIVDRRTASMRSVGMLTNLNYEAMKTLLGERIMDRMTMNGGRWVNFNWESWRPNVGQPGIEK” stands “soluble”; under “GPGSMPTRPLLVKYETPVLLSEVKHKKALKEKKRVAVGAQSGPQAEDVLYSIIPPREFEENGQQWVQYVSSIPATRMDVINLQERLDSLLLERNARETGICPVREELYSQVFDELIRQVTVNCAERGLLLLRVRDELRMTLDAYRSLYESSAAYGMRKALQAEQSKIEMESKIQALEREKEELKQQVEELEYRCESIIQQEKEKFAEAERKHNEEVAFFRRTYQTLTTNLQTLCNATKA”, “soluble”.
For the sequence “MKVLFAKTFVKDLKHVPGHIRKRIKLIIEECQNSNSLNDLKLDIKKIKGYHNYYRIRVGNYSIGIEVNGDTIIFRRVLHRKSIYDYFP”, the “soluble on expression in E. coli” value was “soluble”.
Under “MSDKPHRIVIVGGGAGGLELATALGNKYGKSDAVRVTLVDRSRTHIWKPLLHAIAAGSLRRSQHELNYLAQAHWHGFHYRLGEMNGLDRARKVIKLAPVIDDEGREINPESELAYDTLVIAIGSVTNDFGTPGARDHAVPLETPEQASRFNKRMVNACLRAQHQHAPIEPGQLHVAIIGAGATGTELAAELHHTAREIIAYGLDKIDPEHDLKIVLIEAAPRILPALPPRISDATLKLLLDLGVEVRTGARVAEVLDHAVRLADGEVIPSELVVWAAGVRAPDFLEGIDGLDTNRINQLVVRPTLQTTRDDNVFGMGDCAACAIPGYENGVPPRAQAAHQEAEFMLEQIEKRLKGEPLGEFRYRDLGSLVSLGKYSAVGNLMGSLVGKSFLIEGYFARFMYRSLYKMHEAALYGRGRTLLSVLSGSTRPTPTVKLHLEHHHHHH” stands “not soluble”.
Under “MGCCQSKKARNNQRNNQRSDQMNRQHTQPSPNASTEQMAYPRQQPQGIPQGPPPAYAPPAAPKAPEKVVEPKNRRVTIAEPPERVAEPSPTPEDPELFTCIDQTEKEVEKEVEKRKSAPRAPVPAPTPAPQAAPQATPAAPAQAYPQQQQAAPVVYGSQPMVMGAAPVAPVVMAPPPVIMSPYPYYGGGVMFDPYYNGFYGGYGYGGFDFGYGGYGGYGCGFY” stands “not soluble”.
